Data from IntAct's records for PubMed 18007658.

B1: Protein SLY1 (Saccharomyces cerevisiae), P22213 (parent)
chain: MAVEEIASRKDISLRDMQISAILKMLFLNKDLNNNDNITTITDDIFNQQEIIWKVLILDIKSTATISSVLRVNDLLKAGITVHSLIKQDRSPLPDVPAIYFVSPTKENIDIIVNDLKSDKYSEFYINFTSSLPRNLLEDLAQQVSITGKSDKIKQVYDQYLDFIVTEPELFSLEISNAYLTLNDPKTTEEEITGLCANIADGLFNTVLTINSIPIIRAAKGGPAEIIAEKLGTKLRDFVINTNSSSTSTLQGNDSLERGVLIILDRNIDFASMFSHSWIYQCMVFDIFKLSRNTVTIPLESKENGTDNTTAKPLATKKYDIEPNDFFWMENSHLPFPEAAENVEAALNTYKEEAAEITRKTGVTNISDLDPNSNNDTVQIQEVVKKLPELTAKKNTIDTHMNIFAALLSQLESKSLDTFFEVEQDPGSTKTRSRFLDILKDGKTNNLEDKLRSFIVLYLTSTTGLPKDFVQNVENYFKENDYDINALKYVYKLREFMQLSNMSLQNKSLEDGSDSAFKPSNLTLSGIYGLTEGKLQGGVGSLISGIKKLLPEKKTIPITNVVDAIMDPLNSSQKNLETTDSYLYIDPKITRGSHTRKPKRQSYNKSLVFVVGGGNYLEYQNLQEWAHSQLHNPKKVMYGSTAITTPAEFLNEISRLGASNSSNNDA
partner: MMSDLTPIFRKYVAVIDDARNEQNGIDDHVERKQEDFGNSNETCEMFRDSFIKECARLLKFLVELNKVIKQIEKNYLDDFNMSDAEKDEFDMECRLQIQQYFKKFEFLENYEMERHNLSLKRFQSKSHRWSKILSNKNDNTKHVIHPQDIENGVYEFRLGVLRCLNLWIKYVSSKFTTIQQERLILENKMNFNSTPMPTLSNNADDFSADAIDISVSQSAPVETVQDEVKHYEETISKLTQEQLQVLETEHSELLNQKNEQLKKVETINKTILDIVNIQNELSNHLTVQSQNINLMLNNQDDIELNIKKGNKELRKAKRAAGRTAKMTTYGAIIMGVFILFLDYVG
B2: Syntaxin UFE1 (Saccharomyces cerevisiae), P41834 (parent)
chain: B1 partner
partner: B1 chain

Variants of: B1
Conditions: with ufe1_yeast UFE1, P41834

Variant	effect of a mutation on the interaction
L137R	disrupting interaction

Variants of: B1
Conditions: with ufe1_yeast UFE1, P41834
Remark: another data set of the same source

Variant	effect of a mutation on the interaction
L137R	decreasing interaction

Variants of: B2
Conditions: with sly1_yeast SLY1, P22213

Variant	effect of a mutation on the interaction
MMSDLTPIARKYVAVIDDARNEQNGIDDHVERKQEDFGNSNETCEMFRDSFIKECARLLKFLVELNKVIKQIEKNYLDDFNMSDAEKDEFDMECRLQIQQYFKKFEFLENYEMERHNLSLKRFQSKSHRWSKILSNKNDNTKHVIHPQDIENGVYEFRLGVLRCLNLWIKYVSSKFTTIQQERLILENKMNFNSTPMPTLSNNADDFSADAIDISVSQSAPVETVQDEVKHYEETISKLTQEQLQVLETEHSELLNQKNEQLKKVETINKTILDIVNIQNELSNHLTVQSQNINLMLNNQDDIELNIKKGNKELRKAKRAAGRTAKMTTYGAIIMGVFILFLDYVG [F9A]	disrupting interaction
